{
  "source": "the nanobody polyreactivity screen of Harvey et al. (2022)",
  "data": [
    {"test": "yeast display, Sf9 membrane polyspecificity reagent, FACS + sequencing; frameworks hold sequencing errors", "summary_of_the_method": "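Genes from sorted yeast were amplified by colony PCR, read by MiSeq 2 × 250 sequencing and filtered on CDR length. These cells carried a synthetic nanobody library in Saccharomyces cerevisiae BJ5465 and were sorted by FACS into low and high (top ~1%) gates on anti-HA and streptavidin fluorescence. Polyreactivity is labelled according to the gate of origin.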", "values": [
      {"sequence": "QVQLVESGGGLVQAGGRLRLSCAATGRTFLPNAMGWYRQAPGKERELVASINGDGTTNYADSVKGRFTISRDNAKNTVYLQMNSLKPEDTAVYYCAADGYGGYYRGTYYTVYYWGQGTQVTLSS", "polyreactivity (PSR sort gate)": "low polyreactivity"},
      {"sequence": "QVQLVESGGGLVQAGGSLRLSCAASGFIFSYYAMGWYRQAPGKEREWVAAISKTGGNTYYADSVKGRFTISRDNAKKTVYLQMNSLKPEDTAVYYCNALRGDWRDMGYCGQGTQVTVSS", "polyreactivity (PSR sort gate)": "high polyreactivity"},
      {"sequence": "QVQLVESGGGLVQAGGSLRLSCAASGRTFPLNAMGWYRQAPGKERELVAAITWSGGRTYYADSVKGRFTISRDNAKNTVYLQMNSLKPEDTAVYYCNVDKVTSWYYYGYWGQGTQVTVSS", "polyreactivity (PSR sort gate)": "low polyreactivity"},
      {"sequence": "QVQLVESGGGLVQAGGSLRLICAASGSIFRSYSMGWYRQAPGKERELVAGINRSGASTYYADSVKGRFTISRDNAKNTVYLQMNSMKPEDTAVSYCNARAQRGGYNYWGQGTQVTVSS", "polyreactivity (PSR sort gate)": "high polyreactivity"},
      {"sequence": "QVQLVESGGGLVQAGGSLRFSCAASGSTFSYYTMGWYRQAPGKERELVATISRRGASTYYADSVKGRFTISRDNAKNTVYLQMNSLKPEDTAVYYCAKSYYYGRSATRPEYDYWGQGTQVTVSS", "polyreactivity (PSR sort gate)": "high polyreactivity"},
      {"sequence": "QVQLVESGGGLVQAGGSLRLSCAASGRTFGVYVMGWYRQAPGKERELVAVITISGGSTYYADSVKGRFTISRDNAKNTVYLQMNSLKPEDTAVYYCAARTYYGYDYWGQGTQVTVSS", "polyreactivity (PSR sort gate)": "high polyreactivity"},
      {"sequence": "QVQLVESGGGLVQAGGSLRLSCAASGSIFVLNAMGWYRQAPGKEWELVAVISNIGGRTYYADSVKGRFTISRDNAKNTVYLQLNSLKPEDTAVYSCAAPFTSTFDYWGQVTQVTVSS", "polyreactivity (PSR sort gate)": "low polyreactivity"},
      {"sequence": "QVQLEESGGGLVQAGGSLRLSCAASGSIFVGYDMGWYRQAPGKVWELVAAITSSGVGSTYYADSVKGRFTISRDNAKNTVYLQMNSLKPEDTAVYYCAARTSLWWFLKYDYWGEGTQVTVSS", "polyreactivity (PSR sort gate)": "low polyreactivity"},
      {"sequence": "PVQLVESGGGLVQAGGSHRLSCAASGSIFYFNAMGWYRQAPGKERELVAVITDRGSTYYSDSVKGRFTISRDNAKNTVYLQMNSLKPEDTAVYYCAAQTPGVYLRQIGGYYYWGQGTQVTVSS", "polyreactivity (PSR sort gate)": "low polyreactivity"},
      {"sequence": "QVQLVESGGGLVQAGGSLRLSCAASRRIYYWYVMGWYRQAPGKERELVASISWSGGSTYYADSVKGRFTISRDNAKNTVYLQMNSLKPEDTAVYYCNAGSVYTVSLPGHPYDYWGQGTQVTVSS", "polyreactivity (PSR sort gate)": "low polyreactivity"},
      {"sequence": "QVQLVESGAGLVQAGGSLRVSCAASGRTFAHYAMGWYRQAPGKERELVAAISSGASTNYADSVKGRFTISRDNAKNTVYLQMNSLKPEDTAVYYCAKQAKYHQGTYDYWGQGTQVTVSS", "polyreactivity (PSR sort gate)": "low polyreactivity"},
      {"sequence": "QVQLVESGGGLVQAGGSLRLSCAASGSTFGENAMGWYRQAPGKERELVAGINSTGGSTYYADSVKGRFTISRDHAKNNVYLQMNSLNPEDTAVYYCAAGDWYSGNTSHFYYWGQGTQVTVSS", "polyreactivity (PSR sort gate)": "low polyreactivity"},
      {"sequence": "QVQLVESGGGLVQAGGSLRLSCAASGSIFWGYAMGWYRQAPGKERELVATIPNRGGSTYYADSVKARFTISRDNAKNTVYLQMNSLKPEDTAVYYCAVERDYWTKASYYWGRGTQVTVSS", "polyreactivity (PSR sort gate)": "low polyreactivity"},
      {"sequence": "QVQLVESGGGLVQAGGSLRLSCAAYGRTIPRYAIGWSRQAPGKQRDFVDSISFSSGSTYYADSVKGRFTISRDNAKNTVYVQMKSMKAEDTAVDYSNDIPGSRYYGYRLYYYWGQGTQVTVSS", "polyreactivity (PSR sort gate)": "high polyreactivity"},
      {"sequence": "QVQLVESGGGLVQAGGSLRLSCAASGYTLDNYAMGWYRQAPGKERELVAGITFSGGSTFYADSVKGRFTISRDNAKNTVYLQMNSLKPEDTAVYYCAADAEFQADHKYGYWGQGTQVTVSS", "polyreactivity (PSR sort gate)": "low polyreactivity"},
      {"sequence": "QVQLVESVGGLVQAGGSLRLSCAASGRTFYHYAIGWYIQAPGQERELVAAITYRGGNTYYADSVKGRFTISRDNAKNTVYLQMNRLKPEDTAVYYCAKQGVRRHYGYDYWGQGTQVTVSS", "polyreactivity (PSR sort gate)": "high polyreactivity"},
      {"sequence": "QVQLVESGGGLVQAGGSLRLSCAASGRIFGVNAMGWYRQAPGKERELVAAISRSGGSTYYADSVKGRFTISRDNAKNTVYLQMNSRKPEDTAVYYCATDHFYYRQKYWAYYYWGQGTQVTVSS", "polyreactivity (PSR sort gate)": "high polyreactivity"},
      {"sequence": "QVQLVESGGGLVQAGGSLRLSCAASGNTFAAYAMGWYRQAPGKEWELVAAITTSGGITYYADSVKGRFTISRDNAKNTVYLQMNSLKPEDTAVYYCAVDGGRWGQGTQVTVSS", "polyreactivity (PSR sort gate)": "low polyreactivity"},
      {"sequence": "QVQLVESGGGLVQEGGSLRLSCAASGSIFDVYAMGWYRQAPGKERELVAAISSSGSTYYADSVKGRFTISRDNAKNTVYLQMNSLKPEDTAVYYCAADQADDDDYYYWGQVTQVTVSS", "polyreactivity (PSR sort gate)": "low polyreactivity"},
      {"sequence": "QVQLVESGGGLVQAGGSLRLSCAASGITLRRNTMGWDRQAPGKERELVAAITRSGGSTYYADSVKGRFTISRDNAKNTVYLQMNSLKPEDTAVYYCAKGPSYGGPSHDYWGQGTQVTVSS", "polyreactivity (PSR sort gate)": "high polyreactivity"},
      {"sequence": "QVQLVESGGGLVQAGGSLRLSCAASGLIFGYYAMGWYRQAPGTEREFVAAIDGSDGTTYYADSVKGRFTISRDNAKNTVYLQMNSLKPEDTAVYYCNAESSSYSCDMGYDYWGQGTQVTVSS", "polyreactivity (PSR sort gate)": "low polyreactivity"},
      {"sequence": "QVQLVESGGGLVQAGVSLRLSCAASGRTFVSNAMGWYRQAPGKEREFVAAIRDSGGRTYYADSVKGRFTISRDNANNTVYLQMTSLIPEDTAVYYCATRGVSPSRPGYYWGQGTQVTVSS", "polyreactivity (PSR sort gate)": "high polyreactivity"},
      {"sequence": "QVQLVESGGGLVQAGGSLRLSCAASGSTFYRNAMGWYRQAPGKERELVAAISSTGGSTYYADSVKGRFTISRDNAKNTVYLQMNSLKAEDTAVYYCAVDPGLTKGFGYWGQGTHVTVSS", "polyreactivity (PSR sort gate)": "low polyreactivity"},
      {"sequence": "QVQLVESGGGLVQAGGSLRLSCAASGRIFDRYAMGWYRQAPGKERELVASITSSGGNTYYADSVKGRFTISRDNAKNTVYLQMNSLKPEDTAVYYCAKPQRVWQYGNYYYWGQGTQVTVSS", "polyreactivity (PSR sort gate)": "high polyreactivity"},
      {"sequence": "QVQLVESGGGLVQAGGSLRLSCAASGSIFWPNTMGWYRQAPGKERELVATISSGGDTSYADSVKGRFTISRDNAKNTVYLQMNSLKPEDTAVYYCAKRITVDDVHPRAQTYNYWGQGTQVTVSS", "polyreactivity (PSR sort gate)": "low polyreactivity"},
      {"sequence": "QVQLVESGGGLVQAGGSLRISCAASGFIFSRNAMGWYRQAPGKERELVAAISAGGGSTYYADSVKGRFTISRDNAKNTVYLQMNSLKPEDSAVYSCAAYFRSQFGYWGQGTQVTVSS", "polyreactivity (PSR sort gate)": "high polyreactivity"},
      {"sequence": "QVQLVESGGGLVQAGGSLRLSCAASGLTFDRYAMGWYRQAPGKERELVAAISGSGSSTYYADSAKGRFTISRDNAKNTVYLQMNSLKPEDTAVYYCAADRDLGYDTRYNYWGQGTQVTVSS", "polyreactivity (PSR sort gate)": "low polyreactivity"},
      {"sequence": "QVQLVESGGGLVQAGGSLRLSCAASGSIFDSNAMGWYRQAPGKERELVAAITGSGSTNYADSVKGRFTISRDNAKNTVYLQMNSLKPEDTAVYYCNAQAPYTEFDYWGQGTQVTVSS", "polyreactivity (PSR sort gate)": "low polyreactivity"},
      {"sequence": "QVQLVESGGGLVQAGGSLRLSCAASGRTLYRYAMGWYRQAPGKERELVATITTGGSTNYADSVKGRFTISRDNAKNTVYLQMNSLKPEDTAVYYCNAGILSRWVRKYYYWGQGTQVTVSS", "polyreactivity (PSR sort gate)": "low polyreactivity"},
      {"sequence": "QVHLVESGGGLVQAGGSLRLSCAASGRILTSNAMGWYRQAPGKERELVAAISWSGGSTYYADSVKGRFTISRVNAKNTVYLQMNSLKPEDTAVYYCAAPFTTTFDYWGQGTLVTVSS", "polyreactivity (PSR sort gate)": "low polyreactivity"}
    ]}
  ]
}
